Source: patent US20050255113A1, “Methods and compositions for inhibiting polypeptide accumulation associated with neurological disorders” (New York State Department of Health and Abgenix, Inc., priority 1999, published 2005)

B1: α-Nt-HD-C4 sFv-NLS: huntingtin-specific C4 sFv intrabody fused to HA tag and SV40 nuclear localization signal (protein)
scFv: QVQLQESGGGLVQPGGSLRLSCAASGFTFSSYSMSWVRQAPGKGLEWVAVISYDGSNKYYADSVKGRFTISRDNSKNTLYLQMNSLRAEDTAVYYCARDRYFDLWGRGTLVTVSSGGGGSGGGGSGGGGSQSALTQPASVSGSPGQSITISCTGTSSDIGAYNYVSWYQQYPGKAPKLLIYDVSNRPSGISNRFSGSKSGDTASLTISGLQAEDEADYYCSSFANSGPLFGGGTKVTVLYPYDVPDYATPPLLLRLV
B2: α-Nt-HD-C4 sFv clone 1: subclone 1 of α-Nt-HD-C4 sFv expressed in bacteria and purified on Ni-NTA (protein)
scFv: QVQLQESGGGLVQPGGSLRLSCAASGFTFSSYSMSWVRQAPGKGLEWVAVISYDGSNKYYADSVKGRFTISRDNSKNTLYLQMNSLRAEDTAVYYCARDRYFDLWGRGTLVTVSSGGGGSGGGGSGGGGSQSALTQPASVSGSPGQSITISCTGTSSDIGAYNYVSWYQQYPGKAPKLLIYDVSNRPSGISNRFSGSKSGDTASLTISGLQAEDEADYYCSSFANSGPLFGGGTKVTVL
modifications: left off: small tags and cut ends
notes: subclone 1 of α-Nt-HD-C4 sFv expressed in bacteria and purified on Ni-NTA
B3: α-Nt-HD-C4 sFv clone 2: subclone 2 of α-Nt-HD-C4 sFv expressed in bacteria and purified on Ni-NTA (protein)
scFv: B2 scFv
modifications: left off: small tags and cut ends
notes: subclone 2 of α-Nt-HD-C4 sFv expressed in bacteria and purified on Ni-NTA

Legend:
[1] = test system: model huntingtin polypeptide (HD-25Q-GFP, pHD-104Q-GFP, HD-Q104-myc, GFP-HD-Q104); experiment: Intrabody retargeting of model huntingtin polypeptide in co-transfected COS-7 cells (immunofluorescence); type: cell-based
Protocol: COS 7 cells were grown on cover glass in 6-well plates (10^5 cells/well) and co-transfected at a ratio of 3:1 (sFv to target) with plasmids containing either N-HD-C4 sFv or a negative control sFv (containing an HA tag and SV40 nuclear localization sequence (NLS)) and plasmids containing GFP-targeted fusion proteins using 5 μl SuperFect transfection reagent (QIAGEN). At 24 hours post-transfection, cells were prepared for immunofluorescence as follows: cells were fixed with 4% paraformaldehyde and permeabilized with 0.2% triton-X100. To prevent non-specific binding of secondary antibodies, cells were blocked with 10% normal goat serum in 3% BSA.
The assay is designed such that both the target antigen, i.e., the model huntingtin polypeptide, and the intrabody can be visualized. In particular, the huntingtin polypeptide is visualized by detecting fluorescence emitted by the GFP domain of the huntingtin-GFP fusion polypeptide and the intrabodies tested are visualized using a rhodamine-conjugated antibody that can specifically bind to the intrabody.
The model HD target polypeptide was fused to c-myc (EQKLISEEDL (SEQ ID NO: 45)) epitope tag (HD-Q104-myc). The intrabodies sequences were fused to a HA tag and a SV40 nuclear localization signal (sFv-HA-NLS), so that bound antigens should be retargeted to the cell nuclei. At 48 hours post-transfection, cells were fixed and permeabilized. The HD-Q104-myc proteins were detectable using anti-myc epitope antibodies (i.e., MAb 9E10 IgG), followed by FITC-labeled goat anti-mouse IgG. The sFv-HA-NLS intrabodies were detected by polyclonal rabbit anti-HA IgG followed by rhodamine-conjugated goat anti-rabbit IgG antibodies.
FIGS. 13A-F show stably transfected COS-7 cells expressing α-Nt-HD-C4 sFv-HA-NLS which were further transfected with plasmids encoding either the model altered huntingtin polypeptide with 104 glutamine repeats (FIGS. 13B, D, F) or the model altered DRPLA polypeptide with 81 glutamine repeats (FIGS. 13A, C, E). Both model altered polypeptides were fused to GFP (GFP-HD-Q104 and GFP-DRPLA-Q81, respectively).

GST-HD-25Q, GST-HD-42Q = experiment: Affinity purification of sFv with GST-fusion antigens (glutathione-Sepharose, SDS-PAGE, immunoblot); type: binding; settings: 3 μg sFv with 4 μg antigen, 1 hr room temperature; Coomassie and immunoblot
Sequence of GST-HD-25Q, GST-HD-42Q (as listed by the source): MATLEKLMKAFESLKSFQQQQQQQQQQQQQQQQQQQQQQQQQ
Protocol: About 3 ug of N-HD-C4 sFv was mixed with 4 ug of either GST-DRPLA-Q35 or GST-HD-Q25 or GST-HD-Q42 in PBS (200 μl final volume) and rocked for 1 h at RT. Twenty microliters of glutathione Sepharose 4B beads (50% slurry, pre-washed with PBS) was added and incubated for another 30 min at RT to capture the sFv/GST fusion protein complexes. The beads were harvested by centrifugation at 12,000×g for 10 sec and washed thrice with 1 ml PBS. The complexes were eluted with 10 μl of 50 mM Tris pH 8.0 containing 10 mM reduced glutathione for 10 min at RT. Tubes were then centrifuged at 12,000×g for 1 min and the supernatants containing the soluble complexes were transferred to new tubes, mixed with an equal volume of 2× SDS-sample buffer and heated at 95° C. before being loaded on SDS-PAGE.
About 3 μg of each clone were incubated in solution for 1 hour at room temperature with 4 ug of either GST-DRPLA-Q35, GST-HD-Q25 or GST-HD-Q42. Then, a 10 μl bed volume of glutathione-Sepharose 4B (Pharmacia) was added to each tube to precipitate the GST-fusion protein/sFv complexes. After 30 min incubation, tubes were centrifuged and the pellets washed 3 times with 1 ml PBS. The complexes were eluted from glutathione-Sepharose beads by addition of 10 mM reduced glutathione to the pellets.
After centrifugation, supernatants containing the eluted complexes were transferred to new tubes and mixed with an equal volume of 2× SDS-loading buffer. The samples were boiled and the proteins separated on a 12% SDS-PAGE. Protein bands were visualized by Coomassie blue staining, and/or transferred to nitrocellulose membranes in order to detect the sFv molecules by immunoblot.
The binding specificities of the selected sFv clones were tested by affinity binding to a full range of antigens, as follows: (a) using sample numbers that correspond to the experimental results in FIGS. 9 and 10, about 3 μg of α-Nt-HD-C4 sFv clone 1 (lanes 2-4) or α-Nt-HD-C4 sFv clone 2 (lanes 5-7) were mixed with 4 μg of the following antigens and incubated in solution for 1 hr at room temperature (lanes 2 and 5) GST-DRPLA-35Q, (lanes 3 and 6) GST-HD-25Q, (4 and 7) GST-HD-42Q; (b) a 10 μl bed volume of glutathione-Sepharose 4B (Pharmacia) was added to each tube to bind all GST-containing protein complexes; the beads were washed with 10 mM glutathione solution, which eluted the GST-antigen or the sFv-antigen complex, and these eluates were analyzed by SDS-PAGE. Protein bands were visualized by Coomassie blue staining (FIG. 9) and were also transferred to nitrocellulose membranes in order to detect the sFv molecules by immunoblot blot (FIG. 10).

Molecule	relocation of HD-Q104-myc ([1]; COS-7, 48 hours post-transfection)	retargeting of HD-25Q-GFP ([1]; COS-7 co-transfection)	colocalization with GFP-HD-Q104 in cell nuclei ([1]; COS-7 stably expressing the intrabody)	sFv co-purified with antigens containing the Nt-HD sequence (GST-HD-25Q, GST-HD-42Q)
B1	able to relocate the model altered huntingtin polypeptide HD-Q104-myc from the cytosol to the nucleus	can retarget the distribution of huntingtin polypeptide to the nucleus	clearly shows specificity to GFP-HD-Q104	
B2				binding only the HD flanking peptide
B3				binding only the HD flanking peptide
